Experimental findings from patent US11338018B2, “Adrenocorticotropic hormone-based pharmaceutical formulations and methods for fabricating and using thereof” (Harrow IP, LLC, priority 2016, dated 2022) are described below.

The nature of the data set: Comparative potency (USP corticotropin units) to assess formulation shelf stability. In kind it is physicochemical. On the set-up: key to Potency: “Failed” refers to the potency after the testing being outside of the USP Corticotropin Units 80-125% range required by the U.S. Pharmacopeia.; “Passed” refers to the potency after the testing being within the 80-125% range required by the U.S. Pharmacopeia. The procedure:
The term “potency” is defined in accordance with the U.S. Pharmacopeia (USP) and refers to the quantity of an active pharmaceutical component in the composition. In accordance with the requirements of the USP, the potency that is required of the corticotropin compositions described below is not less than 80.0 percent and not more than 125.0 percent of the potency stated on the label in USP corticotropin units.
Several compositions were prepared according to the methods illustrated in Examples 1-3. Table 1 provides a comparison of their respective potencies for showing shelf stability. The terms “recombinant porcine” and “recombinant human” refer to synthetic ACTH having the same amino acid sequence as the naturally occurring polypeptide derived from pigs and humans, respectively. […] Unexpectedly, it was observed that addition of L-Methionine in combination with Mannitol improved the shelf stability of Corticotropin Active Pharmaceutical Ingredient. FIGS. 1-4 show potencies of various exemplary compositions from Day 0 to Day 365.

As to “SYSMEHFRWGKPVGKKRRPVKVYPNGAEDESAEAFPLEF [Recombinant human]”, the Potency entry is, setting by setting: (Cysteine, 2 mg/mL, Mannitol 50 mg/mL, pH 4.5-6.5, after 60 days) “Failed after”; (Methionine, 2 mg/mL, Mannitol 50 mg/mL, pH 4.5-6.5, stable after 180 days) “Passed^4, (“Passed” refers to the potency after the testing being within the 80-125% range required by the U.S. Pharmacopeia.)”. Besides, the “label amount remaining intact” value (Cysteine, 2 mg/mL, Mannitol 50 mg/mL, pH 4.5-6.5, day 90) was “^3Followed by even more substantial failure by day 90 (when only about 16.9% of the label amount remaining intact)”.
As for “SYSMEHFRWGKPVGKKRRPVKVYPNGAEDELAEAFPLEF (Sythetic construct) [Synthetic porcine]”, the Potency entry by setting is: (Cysteine, 1 mg/mL, Mannitol None, pH 4.5-6.5, after 30 days) “Failed^1 after”; (Cysteine, 2 mg/mL, Mannitol 50 mg/mL, pH 4.0-6.0, after 10 days, both accelerated (room temperature) and refrigerated conditions) “Failed after”; (Cysteine, 2 mg/mL, Mannitol 50 mg/mL, pH 4.5-6.6, after 30 days) “Failed after”; (Methionine, 2 mg/mL, Mannitol 50 mg/mL, pH 4.0-6.0, after 10 days, both accelerated (room temperature) and refrigerated conditions) “Failed after”; (Methionine, 3 mg/mL + POLOXAMER 188, 3 mg/mL, Mannitol 50 mg/mL, pH 5.0-6.5, stable after 360 days) “Passed, (“Passed” refers to the potency after the testing being within the 80-125% range required by the U.S. Pharmacopeia.)”; (Methionine, 3 mg/mL, Mannitol 50 mg/mL, pH 4.0-6.0, stable after 365 days) “Passed, (“Passed” refers to the potency after the testing being within the 80-125% range required by the U.S. Pharmacopeia.)”.
